Results reported in patent publication US20180155450A1 (Sanofi, published 2018).

Key:
[1] = target: T1, recombinant human IL13 (human, UniProt P35225 35-146, limits assumed); assay: SPR (Biacore 3000), captured CODV-Ig, antigen as analyte;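 also: kd derived from kinetic fits in BIAevaluation 4.1, with signals referenced against a flow cell lacking captured antibody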
T1 construct: bought; also called Antigen2
Method: (§1) Kinetic binding analysis by Biacore was performed as follows. Surface plasmon resonance technology on a Biacore 3000 (GE Healthcare) was used for detailed kinetic characterization of purified antibodies. […] Chip surfaces were regenerated with 10 mM glycine pH 2.5. Kinetic parameters were analyzed and calculated in the BIAevaluation program package v4.1 using a flow cell without captured antibody as a reference.

[2] = target: T2, recombinant human IL4 (human, UniProt P05112 25-153); assay: as above
T2 construct: bought; also called Antigen1
T2 sequence (looked up): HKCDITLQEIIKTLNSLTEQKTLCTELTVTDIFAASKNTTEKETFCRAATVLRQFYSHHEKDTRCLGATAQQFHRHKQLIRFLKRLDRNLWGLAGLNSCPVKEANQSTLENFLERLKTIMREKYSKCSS
Method: as §1

T1 sequence (P35225 35-146 limits assumed): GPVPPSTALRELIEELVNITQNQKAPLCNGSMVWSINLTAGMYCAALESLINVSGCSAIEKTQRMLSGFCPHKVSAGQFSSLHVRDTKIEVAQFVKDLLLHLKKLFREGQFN

B1: CODV-Ig Batch ID 240 (IL4 × IL13 on HC; L1=7, L2=5, L3=5, L4=2) (bispecific antibody)
chain 1: not shown
chain 2: DIVLTQSPASLAVSLGQRATISCRASESVDSYGQSYMHWYQQKAGQPPKLLIYLASNLESGVPARFSGSGSRTDFTLTIDPVQAEDAATYYCQQNAEDSRTFGGGTKLEIKGGGGGGGDIQMTQSPASLSVSVGDTITLTCHASQNIDVWLSWFQQKPGNIPKLLIYKASNLHTGVPSRFSGSGSGTGFTLTISSLQPEDIATYYCQQAHSYPFTFGGGTKLEIKGGGGGRTVAAPSVFIFPPSDEQLKSGTASVVCLLNNFYPREAKVQWKVDNALQSGNSQESVTEQDSKDSTYSLSSTLTLSKADYEKHKVYACEVTHQGLSSPVTKSFNRGEC
Kd [1]: 0.065 nM | Kd [2]: 0.004 nM

B2: CODV-Ig Batch ID 237 (IL4 × IL13 on HC; L1=5, L2=3, L3=5, L4=2) (bispecific antibody)
chain 1: not shown
chain 2: DIVLTQSPASLAVSLGQRATISCRASESVDSYGQSYMHWYQQKAGQPPKLLIYLASNLESGVPARFSGSGSRTDFTLTIDPVQAEDAATYYCQQNAEDSRTFGGGTKLEIKGGGGGDIQMTQSPASLSVSVGDTITLTCHASQNIDVWLSWFQQKPGNIPKLLIYKASNLHTGVPSRFSGSGSGTGFTLTISSLQPEDIATYYCQQAHSYPFTFGGGTKLEIKGGGRTVAAPSVFIFPPSDEQLKSGTASVVCLLNNFYPREAKVQWKVDNALQSGNSQESVTEQDSKDSTYSLSSTLTLSKADYEKHKVYACEVTHQGLSSPVTKSFNRGEC
Kd [1]: 0.101 nM | Kd [2]: 0.0081 nM

B3: CODV-Ig Batch ID 201 (IL4 × IL13 on HC; L1=5, L2=3, L3=1, L4=2) (bispecific antibody)
chain 1: not shown
chain 2: DIVLTQSPASLAVSLGQRATISCRASESVDSYGQSYMHWYQQKAGQPPKLLIYLASNLESGVPARFSGSGSRTDFTLTIDPVQAEDAATYYCQQNAEDSRTFGGGTKLEIKGGGGGDIQMTQSPASLSVSVGDTITLTCHASQNIDVWLSWFQQKPGNIPKLLIYKASNLHTGVPSRFSGSGSGTGFTLTISSLQPEDIATYYCQQAHSYPFTFGGGTKLEIKGGGRTVAAPSVFIFPPSDEQLKSGTASVVCLLNNFYPREAKVQWKVDNALQSGNSQESVTEQDSKDSTYSLSSTLTLSKADYEKHKVYACEVTHQGLSSPVTKSFNRGEC
Kd [1]: 0.072 nM | Kd [2]: 0.004 nM

B4: CODV-Ig Batch ID 225 (IL4 × IL13 on HC; L1=3, L2=6, L3=3, L4=2) (bispecific antibody)
chain 1: not shown
chain 2: DIVLTQSPASLAVSLGQRATISCRASESVDSYGQSYMHWYQQKAGQPPKLLIYLASNLESGVPARFSGSGSRTDFTLTIDPVQAEDAATYYCQQNAEDSRTFGGGTKLEIKGGGDIQMTQSPASLSVSVGDTITLTCHASQNIDVWLSWFQQKPGNIPKLLIYKASNLHTGVPSRFSGSGSGTGFTLTISSLQPEDIATYYCQQAHSYPFTFGGGTKLEIKGGGGGGRTVAAPSVFIFPPSDEQLKSGTASVVCLLNNFYPREAKVQWKVDNALQSGNSQESVTEQDSKDSTYSLSSTLTLSKADYEKHKVYACEVTHQGLSSPVTKSFNRGEC
Kd [1]: 0.068 nM | Kd [2]: 0.006 nM

B5: CODV-Ig Batch ID 243 (IL4 × IL13 on HC; L1=3, L2=6, L3=6, L4=0) (bispecific antibody)
chain 1: not shown
chain 2: DIVLTQSPASLAVSLGQRATISCRASESVDSYGQSYMHWYQQKAGQPPKLLIYLASNLESGVPARFSGSGSRTDFTLTIDPVQAEDAATYYCQQNAEDSRTFGGGTKLEIKGGGDIQMTQSPASLSVSVGDTITLTCHASQNIDVWLSWFQQKPGNIPKLLIYKASNLHTGVPSRFSGSGSGTGFTLTISSLQPEDIATYYCQQAHSYPFTFGGGTKLEIKGGGGGGRTVAAPSVFIFPPSDEQLKSGTASVVCLLNNFYPREAKVQWKVDNALQSGNSQESVTEQDSKDSTYSLSSTLTLSKADYEKHKVYACEVTHQGLSSPVTKSFNRGEC
Kd [1]: 0.05 nM | Kd [2]: 0.005 nM

B6: CODV-Ig Batch ID 238 (IL4 × IL13 on HC; L1=5, L2=5, L3=5, L4=2) (bispecific antibody)
chain 1: not shown
chain 2: DIVLTQSPASLAVSLGQRATISCRASESVDSYGQSYMHWYQQKAGQPPKLLIYLASNLESGVPARFSGSGSRTDFTLTIDPVQAEDAATYYCQQNAEDSRTFGGGTKLEIKGGGGGDIQMTQSPASLSVSVGDTITLTCHASQNIDVWLSWFQQKPGNIPKLLIYKASNLHTGVPSRFSGSGSGTGFTLTISSLQPEDIATYYCQQAHSYPFTFGGGTKLEIKGGGGGRTVAAPSVFIFPPSDEQLKSGTASVVCLLNNFYPREAKVQWKVDNALQSGNSQESVTEQDSKDSTYSLSSTLTLSKADYEKHKVYACEVTHQGLSSPVTKSFNRGEC
Kd [1]: 0.0672 nM | Kd [2]: 0.0093 nM

B7: CODV-Ig Batch ID 202 (IL4 × IL13 on HC; L1=5, L2=5, L3=1, L4=2) (bispecific antibody)
chain 1: not shown
chain 2: DIVLTQSPASLAVSLGQRATISCRASESVDSYGQSYMHWYQQKAGQPPKLLIYLASNLESGVPARFSGSGSRTDFTLTIDPVQAEDAATYYCQQNAEDSRTFGGGTKLEIKGGGGGDIQMTQSPASLSVSVGDTITLTCHASQNIDVWLSWFQQKPGNIPKLLIYKASNLHTGVPSRFSGSGSGTGFTLTISSLQPEDIATYYCQQAHSYPFTFGGGTKLEIKGGGGGRTVAAPSVFIFPPSDEQLKSGTASVVCLLNNFYPREAKVQWKVDNALQSGNSQESVTEQDSKDSTYSLSSTLTLSKADYEKHKVYACEVTHQGLSSPVTKSFNRGEC
Kd [1]: 0.054 nM | Kd [2]: 0.009 nM

B8: CODV-Ig Batch ID 233 (IL4 × IL13 on HC; L1=7, L2=3, L3=5, L4=0) (bispecific antibody)
chain 1: not shown
chain 2: DIVLTQSPASLAVSLGQRATISCRASESVDSYGQSYMHWYQQKAGQPPKLLIYLASNLESGVPARFSGSGSRTDFTLTIDPVQAEDAATYYCQQNAEDSRTFGGGTKLEIKGGGGGGGDIQMTQSPASLSVSVGDTITLTCHASQNIDVWLSWFQQKPGNIPKLLIYKASNLHTGVPSRFSGSGSGTGFTLTISSLQPEDIATYYCQQAHSYPFTFGGGTKLEIKGGGRTVAAPSVFIFPPSDEQLKSGTASVVCLLNNFYPREAKVQWKVDNALQSGNSQESVTEQDSKDSTYSLSSTLTLSKADYEKHKVYACEVTHQGLSSPVTKSFNRGEC
Kd [1]: 0.113 nM | Kd [2]: 0.003 nM

B9: CODV-Ig Batch ID 203 (IL4 × IL13 on HC; L1=7, L2=3, L3=1, L4=2) (bispecific antibody)
chain 1: not shown
chain 2: DIVLTQSPASLAVSLGQRATISCRASESVDSYGQSYMHWYQQKAGQPPKLLIYLASNLESGVPARFSGSGSRTDFTLTIDPVQAEDAATYYCQQNAEDSRTFGGGTKLEIKGGGGGGGDIQMTQSPASLSVSVGDTITLTCHASQNIDVWLSWFQQKPGNIPKLLIYKASNLHTGVPSRFSGSGSGTGFTLTISSLQPEDIATYYCQQAHSYPFTFGGGTKLEIKGGGRTVAAPSVFIFPPSDEQLKSGTASVVCLLNNFYPREAKVQWKVDNALQSGNSQESVTEQDSKDSTYSLSSTLTLSKADYEKHKVYACEVTHQGLSSPVTKSFNRGEC
Kd [1]: 0.046 nM | Kd [2]: 0.08 nM

B10: CODV-Ig Batch ID 222 (IL4 × IL13 on HC; L1=6, L2=6, L3=3, L4=0) (bispecific antibody)
chain 1: not shown
chain 2: DIVLTQSPASLAVSLGQRATISCRASESVDSYGQSYMHWYQQKAGQPPKLLIYLASNLESGVPARFSGSGSRTDFTLTIDPVQAEDAATYYCQQNAEDSRTFGGGTKLEIKGGGGGGDIQMTQSPASLSVSVGDTITLTCHASQNIDVWLSWFQQKPGNIPKLLIYKASNLHTGVPSRFSGSGSGTGFTLTISSLQPEDIATYYCQQAHSYPFTFGGGTKLEIKGGGGGGRTVAAPSVFIFPPSDEQLKSGTASVVCLLNNFYPREAKVQWKVDNALQSGNSQESVTEQDSKDSTYSLSSTLTLSKADYEKHKVYACEVTHQGLSSPVTKSFNRGEC
Kd [1]: 0.053 nM | Kd [2]: 0.007 nM

B11: CODV-Ig Batch ID 228 (IL4 × IL13 on HC; L1=6, L2=6, L3=3, L4=2) (bispecific antibody)
chain 1: not shown
chain 2: DIVLTQSPASLAVSLGQRATISCRASESVDSYGQSYMHWYQQKAGQPPKLLIYLASNLESGVPARFSGSGSRTDFTLTIDPVQAEDAATYYCQQNAEDSRTFGGGTKLEIKGGGGGGDIQMTQSPASLSVSVGDTITLTCHASQNIDVWLSWFQQKPGNIPKLLIYKASNLHTGVPSRFSGSGSGTGFTLTISSLQPEDIATYYCQQAHSYPFTFGGGTKLEIKGGGGGGRTVAAPSVFIFPPSDEQLKSGTASVVCLLNNFYPREAKVQWKVDNALQSGNSQESVTEQDSKDSTYSLSSTLTLSKADYEKHKVYACEVTHQGLSSPVTKSFNRGEC
Kd [1]: 0.044 nM | Kd [2]: 0.007 nM
